“Also recorded” adds a separate entry of the source.
Legend:
[1] = biological target: T1, CMKLR1 peptide (loop EL3 of CMKLR1, SEQ ID No: 60) (Homo sapiens, UniProt Q99788); assay: ELISA binding on CMKLR1 peptide; conditions: compared to isotype control; FIG. 12
T1 sequence (Q99788 275-307 limits assumed): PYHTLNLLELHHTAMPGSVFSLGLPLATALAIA
Protocol: FIG. 12. Binding analysis of the anti-CMKLR1 antibody on a CMKLR1 peptide by ELISA. The binding of the 2G1 antibody (□) on the CMKLR1 EL3 loop (SEQ ID No: 18) was compared to the isotype control antibody (3G8) (x) by measuring the OD at 450 nm by ELISA.
CMKLR1 peptide (273NH2-[…]-COOH305) (SEQ ID No: 60) (5 μg/ml) was coated in borate buffer overnight. Saturation was performed with PBS-Tween 0.1%-Gelatin 0.25% for 2 hours at 37° C. Then, 2G1 or hIgG1 antibodies were added at different concentrations for 2 hours at 37° C. […] The colorimetric reaction was read with TECAN.

[2] = tested on: Akt and Erk phosphorylation in pro-inflammatory (M1) macrophages; assay: Western blot analysis ERK/Akt phosphorylation; type: cell-based, mice; conditions: 2 μg/mL; after 10 to 30 minutes of incubation; FIG. 17
Protocol: FIG. 17. Study of the CMKLR1 pathway activation: Akt and Erk phosphorylation. Western blot analysis of the ERK and AKT activation pathway after 5, 10 and 30 minutes of mice pro-inflammatory (M1) macrophages incubated with 2G1 or RvE1. The Phosphorylated protein Akt or Erk were assessed using P-Akt antibody or P-Erk antibody (p44/42). A. Erk and Akt activation with RvE1. B. Erk and Akt activation with 2G1.
Mice pro-inflammatory macrophages (M1) were generated from bone marrow with M-CSF and polarized with IFN-gamma (IFNg) and LPS. Briefly, bone marrow cells were collected by flushing the femoral bone and cultured with 100 ng/mL of mM-CSF for 5 days and then polarized with 20 ng/mL of IFNg and 100 ng/mL of LPS for 24 h. Then, they were deprived of FBS for 24 hours with RPMI FBS 2% medium. Finally, mice pro-inflammatory macrophages were treated with 2 μg/mL of 2G1 antibody at different times: 5, 10 and 30 minutes. Cells were collected in a RIPA buffer. The protein concentration was measured by a BCA protein kit assay. Proteins were denatured by heating at 95° C. for 5 minutes and diluted in DTT and Laemmli solution. After migration and transfer, the nitrocellulose membrane was blocked with 5% BSA in TBS-T for 2 hours. […] Western blot Images were quantified by Multi Gauge software

[3] = tested on: chronic colitis after CD45Rbhigh CD4 T cell transfer in Rag1 knock-out mice; assay: CD45Rb high T-cell transfer chronic colitis model; type: in vivo
Protocol: FIG. 19. Effect of an anti-CMKLR1 antibody in the CD45Rb^high T-cell transfer chronic colitis mouse model. A. Weight variation of treated animals was followed up to sixty days. Animals were treated with isotype control hIgG1 (x) or anti-CMKLR1 antibody (n). B. Histological staining of colon tissue in the mice treated with the anti-CMKLR1 (right) compared to control (left). C. Anatomic pathology scores used to calculate the severity of the pathology and the inflammation (inflammation score, vasculutis score, colon thickness and fibrotic colon wall). D. CD3 and Ly6G infiltration.
Method: CD45Rb^high CD4 T cells were isolated from the spleen of naive mice and sorted on an ARIA FACS after a negative selection of the CD4 T cells by magnetic sorting, then injected intraperitoneally at 0.5·10^6 cells in 100 μL of PBS into 6-weeks old female Rag1 knock-out mice. Anti-CMKLR1 antibody (2G1) or an isotype control were administered from day 32 after the CD45Rb^high CD4 T cell transfer for 3 weeks three times a week at 1 mg/kg. The follow-up of weight was evaluated three times a week and the weight variation was determined over the initial weight. * p<0.05, ** p<0.01.

[4] = tested on: PMN from healthy volunteers; assay: Percentage of dead PMN (mortality of neutrophils) on coated antibodies; type: cell-based, human; conditions: coated Ab at 10 μg/mL, 24 h; FIG. 26, FIG. 36
Protocol: […] Mortality of PMN was analyzed by incubating PMN with specific markers of the mortality and viability and then counted by picture analysis.
(§1) FIG. 36—Increase of dead PMN neutrophils in vitro with anti-ChemR23 antibodies coated. PMN from healthy volunteers were incubated in culture medium with coated HEF-LDT52S, HEF-LEF and HDLD antibody variants at 10 μg/mL for 24 h and stained either with a dead/viability kit (LIVE/DEAD (Invitrogen)). The percentages of positive cells were obtained by analyzing the pictures with Fiji software. Isotype control was added as control.
PMN from healthy volunteers were incubated in culture medium with coated Ab at 10 μg/mL for 24 h or 5 h and stained either with a dead/viability kit (LIVE/DEAD (Invitrogen)) or a specific marker of reactive oxygen species (ROS) respectively. The percentages of positive cells were obtained by analyzing the pictures with ImageJ software.
as §1, with “PMN” for “FIG. 36—Increase of dead PMN neutrophils in vitro with anti-ChemR23 antibodies coated. PMN”

B1: 2G1: parental chimeric anti-CMKLR1 antibody: heavy chain variable domain SEQ ID No. 37, light chain variable domain SEQ ID No. 49 (antibody, V domains shown)
VH: EVQLVASGGGLVQPGGSLKLSCAASGFTFSSYGMSWVRQTPDRRLELVATINRYGGSTYYPDSVKGRFTISRDNAKNTLYLQMSSLKSEDTAMYYCPRLIYYGNEGDSWGQGTTLTVSS
VL: QIVLTQSPAIMSASPGEKVTMTCSASSSVSFMHWYQQKSGTSPKRWIYDTTKLTSGVPARFSGSGSGTFYSLTISSMEAEDAATYYCQQWNSKPPLTFGPGTKLELKR
binding on the CMKLR1 EL3 loop peptide (OD at 450 nm) [1]: able to bind the polypeptide forming the loop EL3 of CMKLR1 | activation of Akt and Erk proteins (phosphorylation) [2]: able to induce the activation of both Akt and Erk proteins | Weight variation ([3]; 1 mg/kg three times a week for 3 weeks from day 32, vs isotype control, FIG. 19A): continue to gain weight | anatomic pathology scores, comprising inflammation scores ([3]; FIG. 19C): lower | colon tissue thickness ([3]; histology, FIG. 19B): decrease of tissue thickness | fibrotic tissue ([3]; histology, FIG. 19B): decrease of fibrotic tissue | mortality of PMN (percentage of dead PMN) [4]: increase the mortality of PMN; also recorded: accelerate the death of PMN

From patent publication US12534533B2, “Anti-chemokine like receptor 1 humanized antibodies and their therapeutic applications” (OSE IMMUNOTHERAPEUTICS, priority 2019, dated 2026)
